Values of other authors in publication PMC6236854 (Molecular Imaging, 2018).
Ends that are not written are not given here.

Assays:
GHSR1a = conditions: read-out: half-maximal inhibitory concentration (IC50), binding affinity
[1] = not given; remark: listed apart in the source

ghrelin (GSSFLSPEHQRVQQRKESKKPPAKLQPR; ends and bridges not checked; UniProt Q9UBU3 24-51, looked up) [human ghrelin]
IC50 (GHSR1a): 7.63 nM | in vitro half-life in human serum: 4 h | in vitro half-life in rat serum [1]: 30 min
